This assay deals with T1, Cathepsin G (CTSG) from mouse bone marrow cell lysates (mouse) (UniProt P28293).
T1 sequence (looked up): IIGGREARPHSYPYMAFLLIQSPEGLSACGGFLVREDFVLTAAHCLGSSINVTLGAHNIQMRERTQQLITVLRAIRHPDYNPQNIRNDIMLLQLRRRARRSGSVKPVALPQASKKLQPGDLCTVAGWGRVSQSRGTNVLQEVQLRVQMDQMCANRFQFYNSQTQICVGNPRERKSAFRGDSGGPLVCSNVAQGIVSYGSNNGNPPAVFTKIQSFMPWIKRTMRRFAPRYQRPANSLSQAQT
Briefly: cell-based or functional assay.

B1: LKAb antibody (anti-Cathepsin G scFv, purified as scFv-Fc fusion protein) (Fc fusion, part only; not given: Fc tag, part only)
scFv, part: MAQVQLVQSGAEVKKPGASVKVSCKASGYTFTSYYMHWVRQAPGQGLEWMGGIIPIFGTGNYAQKFQGRVTITADESTSTAYMELSSLRSEDTAVYYCAREEEQQFSLDYWGQGTLVTVSSGGGGGLSNFMLTQPHSVSESPGKTVTISCTRSSGSIASNSVHWYQQRPGSAPTTVISENNQRPSGVPDRFSGSIDSSSNSASLTISGLKTEDEADYYCQSYDSNFHWVFGGGTQLTVLG
Molecule B1 yielded a decrease in CTSG enzymatic activity (cleavage of a specific substrate, release of pNA) of 50%.

The record behind these values is patent EP3349768A1.
